Results: PMC2879411
One block for each substance: values may come before it.

Columns and labels:
[1] = biological target: AEDANS-labeled monomeric actin (rabbit) (UniProt P68135); assay: other fluorescence titration; competition: 1.5 µM AEDANS-labeled actin, increasing Thymosin β4 with 0, 15 or 30 µM Eps8(648–821) or 0, 10 or 15 µM H1–H2; 0.1 M KCl and 1 mM MgCl2 (high salt); apparent constants
[2] = biological target: filamentous actin (F-actin), rabbit skeletal muscle (rabbit) (UniProt P68135)
[3] = biological target: filamentous actin (F-actin), rabbit skeletal muscle (UniProt P68135); assay: inhibition of barbed end elongation from spectrin-actin seeds (pyrenyl-actin), fitted binding curve with 1:1 stoichiometry; details: 2 µM G-actin (10% pyrenyl-labeled)
[4] = biological target: filamentous actin (F-actin), rabbit skeletal muscle (rabbit) (UniProt P68135); remark: listed apart in the source
[5] = biological target: filamentous actin (F-actin), rabbit skeletal muscle (rabbit) (UniProt P68135); remark: listed apart in the source
[6] = biological target: GST-fused Eps8(648–821) wild type (mouse) (UniProt Q08509); assay: SEC + other: glycerol gradient sedimentation; Superdex200 10/30 and 10%–40% glycerol gradients (100 mM Tris-HCl pH 8, 500 mM NaCl, 1 mM dithiothreitol, 1 mM EDTA) of purified GST-Eps8(648–821) proteins

- Kapp with 10 µM H1–H2 [1]: 6 µM
- Kapp with 15 µM Eps8(648–821) [1]: 9 µM
- Kapp with 15 µM H1–H2 [1]: 11 µM
- Kapp with 30 µM Eps8(648–821) [1]: 14 µM
- Kd [1]: 3 µM
Substance: Thymosin β4 (peptide)

- Kcap of barbed end inhibition: elongation from spectrin-actin seeds with 2 µM G-actin (10% pyrenyl-labeled) [2]: 108 nM
Substance: C-terminal fragment of Ce-EPS-8A (aa 714–917) fused to GST, wild type (domain or fragment)

- other: Kcap [3]: 980 nM
Substance: C-terminal fragment of Ce-EPS-8A (aa 714–917) fused to GST, wild type Δcap

- other: Kcap [3]: > 4000 nM
Substance: C-terminal fragment of Ce-EPS-8A (aa 714–917) fused to GST, wild type ΔcapΔbund

- Kcap: barbed end elongation from spectrin-actin seeds [4]: 700 nM
Substance: Eps8(648–821)-V689D-L693D (Eps8-Δcap) (from UniProt Q08509 648-821) (domain or fragment)

- other: Kcap [3]: 205 nM
Substance: C-terminal fragment of Ce-EPS-8A (aa 714–917) fused to GST, wild type Δbund

- Kcap: barbed end elongation [5]: 4 µM
Substance: GST-fused Eps8-ΔcapΔbund, double H1 and Villin-like motif mutant of Eps8(648–821) (from UniProt Q08509 648-821) (domain or fragment)

- Kcap: barbed end elongation, wild type of Figure 6C [5]: 4 nM
- Kcap: barbed end elongation, wild type of Figure 6D [5]: 16 nM
- stoichiometry N [6]: 2
Substance: GST-fused Eps8(648–821) wild type (from UniProt Q08509 648-821) (domain or fragment)
